Measured values published in US20040223970A1 (published 2004).

T1: SLC15A2 (Solute carrier family 15 (H+/peptide transporter), member 2) (human, UniProt Q16348 1-729)
T1 construct: Expressed from its cDNA on stably transfected 3T12 and Calu6 cells (FACS, saporin killing), and endogenous in human prostate sections (IHC); also called SLC15A2 protein; SLCA15A2
T1 sequence: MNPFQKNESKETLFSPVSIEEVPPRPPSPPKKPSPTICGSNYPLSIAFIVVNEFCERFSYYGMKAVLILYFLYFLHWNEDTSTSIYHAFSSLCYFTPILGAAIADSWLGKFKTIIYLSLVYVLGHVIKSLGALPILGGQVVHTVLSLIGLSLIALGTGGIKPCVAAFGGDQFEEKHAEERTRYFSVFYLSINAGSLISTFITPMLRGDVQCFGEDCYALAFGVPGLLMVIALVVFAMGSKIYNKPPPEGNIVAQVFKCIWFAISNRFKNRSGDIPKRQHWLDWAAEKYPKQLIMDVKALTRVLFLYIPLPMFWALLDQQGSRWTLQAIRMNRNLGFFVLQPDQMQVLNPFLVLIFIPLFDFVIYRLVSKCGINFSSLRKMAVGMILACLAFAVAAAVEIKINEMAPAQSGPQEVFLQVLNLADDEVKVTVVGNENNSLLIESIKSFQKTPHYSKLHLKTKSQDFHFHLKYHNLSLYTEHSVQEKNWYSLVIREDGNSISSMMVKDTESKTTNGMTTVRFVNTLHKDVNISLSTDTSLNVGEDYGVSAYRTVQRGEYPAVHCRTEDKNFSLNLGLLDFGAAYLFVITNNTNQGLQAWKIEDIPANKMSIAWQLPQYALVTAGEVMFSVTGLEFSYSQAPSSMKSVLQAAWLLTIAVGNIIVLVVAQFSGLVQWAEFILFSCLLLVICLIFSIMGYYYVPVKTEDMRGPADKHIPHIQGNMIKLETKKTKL


Molecular target: T1, SLC15A2 (Solute carrier family 15 …)
Assay: FACS, hybridoma supernatant on SLC15A2 expressing cells

Row | Binder | binding result
1 | PDO5 #810 monoclonal antibody (antibody, V domains shown, also called clone 810; Clone 810 supernatant) VH: EVQLQQSGPELVKPGASMKISCKASGYSFTGYTMNWVKQSHGKNLEWIGLINPYNGGINYNQKFKGKATLTVDKSSSTAYMELLSLTSEDSAVYYCTRRAYYGNYGTMDYWGQGTSVTVSS VL: ENVLTQSPASMSASPGEKVTMTCSASSSVSYMHWYQQKSTTSPKLWIYDTSNLASGVPGRFSGSGSGNSYSLTISNMEAEDVATYYCFQGSGYPLTFGAGTKLELKR | binds
2 | PDO5 #811 monoclonal antibody (antibody, V domains shown, Mouse monoclonal antibody from a hybridoma, used as hybridoma supernatant; also called clone 811) VH: QVQLQQPGAELVRPGASVKLSCKASGYTFTSYWLNWVRQRPGQGLEWIGMIDPSDSETHYNQMFKDKATLTVDKSSSTAYMQLSSLTSEDSAVYYCTSQGVPVPFDYWGQGTTLTVSS VL: DVVMTQTPLSLPVSLGDQASISCRSSQSLVHSNGNTYLHWYLQKPGQSPKLLIYRVSNRFSGVPDRFSGSGSGTDFTLKISRVEAEDLGVYFCSQSTHVPWTFGGGTKLEIKR | binds
